Experimental data taken from the supplement of paper PMC11246515.
± gives the standard deviation of the averaged measurements.

Assay: total protein half-life in vivo (active degradation + dilution); higher = more stable protein
[1] = E. coli NCM3722 delta-clpP delta-lon delta-hslV, growth: N-lim chemostat, doubling time 6 h
[2] = E. coli NCM3722 delta-clpP, growth: N-lim chemostat, doubling time 6 h
[3] = E. coli NCM3722 delta-hslV, growth: N-lim chemostat, doubling time 6 h
[4] = E. coli NCM3722 delta-lon, growth: N-lim chemostat, doubling time 6 h
[5] = E. coli NCM3722 delta-smpB, growth: N-lim chemostat, doubling time 6 h
[6] = wild type E. coli NCM3722, growth: C-lim chemostat, doubling time 3 h
[7] = wild type E. coli NCM3722, growth: C-lim chemostat, doubling time 6 h
[8] = wild type E. coli NCM3722, growth: C-lim chemostat, doubling time 12 h
[9] = wild type E. coli NCM3722, growth: N-lim chemostat, doubling time 6 h
[10] = wild type E. coli NCM3722, growth: N-lim chemostat, doubling time 12 h
[11] = wild type E. coli NCM3722, growth: P-lim chemostat, doubling time 6 h
[12] = wild type E. coli NCM3722, growth: P-lim chemostat, doubling time 12 h

| Sequence | total protein half-life in vivo [1] | total protein half-life in vivo [2] | total protein half-life in vivo [3] | total protein half-life in vivo [4] | total protein half-life in vivo [5] | total protein half-life in vivo [6] | total protein half-life in vivo [7] | total protein half-life in vivo [8] | total protein half-life in vivo [9] | total protein half-life in vivo [10] | total protein half-life in vivo [11] | total protein half-life in vivo [12] |
| --- | --- | --- | --- | --- | --- | --- | --- | --- | --- | --- | --- | --- |
| MATGTQPDAGQILNSLINSILLIDDNLAIHYANPAAQQLLAQSSRKLFGTPLPELLSYFSLNIELMQESLEAGQGFTDNEVTLVIDGRSHILSVTAQRMPDGMILLEMAPMDNQRRLSQEQLQHAQQVAARDLVRGLAHEIKNPLGGLRGAAQLLSKALPDPSLLEYTKVIIEQADRLRNLVDRLLGPQLPGTRVTESIHKVAERVVTLVSMELPDNVRLIRDYDPSLPELAHDPDQIEQVLLNIVRNALQALGPEGGEIILRTRTAFQLTLHGERYRLAARIDVEDNGPGIPPHLQDTLFYPMVSGREGGTGLGLSIARNLIDQHSGKIEFTSWPGHTEFSVYLPIRK [P0AFB5] | 5.25 ± 0.15 h | 5.41 ± 0.72 h | 5.19 ± 0.57 h | 4.938 ± 0.023 h | 4.73 ± 0.11 h | 3.11 ± 0.38 h | 5.27 ± 0.073 h | 9.99 ± 1.6 h | 4.48 ± 0.38 h | 8.26 ± 1 h | 7.12 ± 0.5 h | 11.2 ± 2.2 h |
| MSITLSDSAAARVNTFLANRGKGFGLRLGVRTSGCSGMAYVLEFVDEPTPEDIVFEDKGVKVVVDGKSLQFLDGTQLDFVKEGLNEGFKFTNPNVKDECGCGESFHV [P0AAC8] | 3.72 ± 0.52 h | 2.47 ± 1.5 h | 0.964 ± 0.11 h | 2.06 ± 0.1 h | 0.889 ± 0.077 h | 1.2 ± 0.086 h | 1.62 ± 0.07 h | 2.08 ± 0.36 h | 1.14 ± 0.11 h | 1.26 ± 0.022 h | 1.36 ± 0.36 h | 2.42 ± 0.75 h |
| MHKFTKALAAIGLAAVMSQSAMAENLKLGFLVKQPEEPWFQTEWKFADKAGKDLGFEVIKIAVPDGEKTLNAIDSLAASGAKGFVICTPDPKLGSAIVAKARGYDMKVIAVDDQFVNAKGKPMDTVPLVMMAATKIGERQGQELYKEMQKRGWDVKESAVMAITANELDTARRRTTGSMDALKAAGFPEKQIYQVPTKSNDIPGAFDAANSMLVQHPEVKHWLIVGMNDSTVLGGVRATEGQGFKAADIIGIGINGVDAVSELSKAQATGFYGSLLPSPDVHGYKSSEMLYNWVAKDVEPPKFTEVTDVVLITRDNFKEELEKKGLGGK | 5.11 ± 0.82 h | 5.55 ± 0.61 h | 6.44 ± 0.68 h | 6.58 ± 0.93 h | 6.54 ± 1.9 h | 3.11 ± 0.2 h | 6.07 ± 0.47 h | 12.2 ± 2.1 h | 5.99 ± 0.45 h | 12.3 ± 3.3 h | 5.91 ± 0.24 h | 13.1 ± 0.49 h |
| MIWKRKITLEALNAMGEGNMVGFLDIRFEHIGDDTLEATMPVDSRTKQPFGLLHGGASVVLAESIGSVAGYLCTEGEQKVVGLEINANHVRSAREGRVRGVCKPLHLGSRHQVWQIEIFDEKGRLCCSSRLTTAIL | 4.78 h | 3.39 h | 4.22 h | 4.14 h | 3.73 ± 0.23 h | 2.75 ± 0.11 h |  |  | 4.23 h | 9.08 ± 3.8 h | 6.54 h | 10.7 h |
| MAESTVTADSKLTSSDTRRRIWAIVGASSGNLVEWFDFYVYSFCSLYFAHIFFPSGNTTTQLLQTAGVFAAGFLMRPIGGWLFGRIADKHGRKKSMLLSVCMMCFGSLVIACLPGYETIGTWAPALLLLARLFQGLSVGGEYGTSATYMSEVAVEGRKGFYASFQYVTLIGGQLLALLVVVVLQHTMEDAALREWGWRIPFALGAVLAVVALWLRRQLDETSQQETRALKEAGSLKGLWRNRRAFIMVLGFTAAGSLCFYTFTTYMQKYLVNTAGMHANVASGIMTAALFVFMLIQPLIGALSDKIGRRTSMLCFGSLAAIFTVPILSALQNVSSPYAAFGLVMCALLIVSFYTSISGILKAEMFPAQVRALGVGLSYAVANAIFGGSAEYVALSLKSIGMETAFFWYVTLMAVVAFLVSLMLHRKGKGMRL [P0AEX3] |  |  |  |  | 1.61 ± 0.23 h | 2.88 ± 0.36 h | 4.51 h | 10 ± 2.4 h | 2.01 h |  | 4.35 ± 0.23 h | 6.27 ± 0.29 h |
| MEQRRLASTEWVDIVNEENEVIAQASREQMRAQCLRHRATYIVVHDGMGKILVQRRTETKDFLPGMLDATAGGVVQADEQLLESARREAEEELGIAGVPFAEHGQFYFEDKNCRVWGALFSCVSHGPFALQEDEVSEVCWLTPEEITARCDEFTPDSLKALALWMKRNAKNEAVETETAE | 5.19 ± 0.16 h | 4.78 ± 0.093 h | 2.3 ± 0.074 h | 2.72 ± 0.38 h | 2.49 ± 0.11 h | 1.93 ± 0.17 h | 4.53 ± 1.2 h | 7.26 ± 0.99 h | 2.85 h | 3.09 ± 0.045 h | 3.4 ± 0.06 h | 7.2 ± 0.65 h |
| MEHISTTTLIIILIIMVVISAYFSGSETGMMTLNRYRLRHMAKQGNRSAKRVEKLLRKPDRLISLVLIGNNLVNILASALGTIVGMRLYGDAGVAIATGVLTFVVLVFAEVLPKTIAALYPEKVAYPSSFLLAPLQILMMPLVWLLNAITRMLMRMMGIKTDIVVSGSLSKEELRTIVHESRSQISRRNQDMLLSVLDLEKMTVDDIMVPRSEIIGIDINDDWKSILRQLSHSPHGRIVLYRDSLDDAISMLRVREAWRLMSEKKEFTKETMLRAADEIYFVPEGTPLSTQLVKFQRNKKKVGLVVNEYGDIQGLVTVEDILEEIVGDFTTSMSPTLAEEVTPQNDGSVIIDGTANVREINKAFNWHLPEDDARTVNGVILEALEEIPVAGTRVRIGEYDIDILDVQDNMIKQVKVFPVKPLRESVAE | 6.45 ± 0.94 h | 6.26 ± 0.14 h | 6.04 ± 0.47 h |  | 5.75 ± 0.47 h | 3.02 ± 0.34 h | 6.47 ± 1.1 h | 9.51 ± 2.4 h | 6.56 ± 0.41 h | 11.6 ± 1 h | 6 ± 0.074 h | 10.9 ± 1 h |
